From patent US20240083945A1 (Bicycle, published 2024)

B1: BCY17642 (peptide)
peptide: ACDDWMIGCRITYKCA
modifications: Ci, Cii and Ciii cysteines covalently bound to TATA scaffold
B2: BCY17649 (peptide)
peptide: ACLEAGQRCNWTRVCA
modifications: Ci, Cii and Ciii cysteines covalently bound to TATA scaffold
B3: BCY19571 (peptide)
peptide: ACTNLEWAYCYIHNECA
modifications: Ci, Cii and Ciii cysteines covalently bound to TATA scaffold
B4: BCY16577 (peptide)
peptide: ACSEEYMFCNNRYVVCA
modifications: Ci, Cii and Ciii cysteines covalently bound to TATA scaffold
B5: BCY17650 (peptide)
peptide: ACLEAGQRCQWQRECA
modifications: Ci, Cii and Ciii cysteines covalently bound to TATA scaffold
B6: BCY17644 (peptide)
peptide: ACLEAGQRCQWGRTCA
modifications: Ci, Cii and Ciii cysteines covalently bound to TATA scaffold
B7: BCY17651 (peptide)
peptide: ACLEAGQRCQWSRTCA
modifications: Ci, Cii and Ciii cysteines covalently bound to TATA scaffold
B8: BCY16580 (peptide)
peptide: ACAWDEYYQVCLPCA
modifications: Ci, Cii and Ciii cysteines covalently bound to TATA scaffold
B9: BCY16579 (peptide)
peptide: ACRVTLDACWDTPCA
modifications: Ci, Cii and Ciii cysteines covalently bound to TATA scaffold
B10: BCY17645 (peptide)
peptide: ACLAPGQRCQWGRTCA
modifications: Ci, Cii and Ciii cysteines covalently bound to TATA scaffold
B11: BCY17652 (peptide)
peptide: ACLAPGQRCNWTRVCA
modifications: Ci, Cii and Ciii cysteines covalently bound to TATA scaffold
B12: BCY19458 (peptide)
peptide: ACTNLQWADCYINHVCA
modifications: Ci, Cii and Ciii cysteines covalently bound to TATA scaffold
B13: BCY17653 (peptide)
peptide: ACLAPGQRCQWQRECA
modifications: Ci, Cii and Ciii cysteines covalently bound to TATA scaffold
B14: BCY19570 (peptide)
peptide: ACTNLDWAYCYIHNQCA
modifications: Ci, Cii and Ciii cysteines covalently bound to TATA scaffold
B15: BCY17648 (peptide)
peptide: ACLPLGARCQWQRECA
modifications: Ci, Cii and Ciii cysteines covalently bound to TATA scaffold
B16: BCY18172 (peptide)
peptide: ACTNLQWAMCYITGNCA
modifications: Ci, Cii and Ciii cysteines covalently bound to TATA scaffold
B17: BCY17646 (peptide)
peptide: ACLPLGARCNWTRVCA
modifications: Ci, Cii and Ciii cysteines covalently bound to TATA scaffold
B18: BCY19572 (peptide)
peptide: ACTNLEWADCYINHNCA
modifications: Ci, Cii and Ciii cysteines covalently bound to TATA scaffold
B19: BCY19573 (peptide)
peptide: ACTNLEWANCYINHNCA
modifications: Ci, Cii and Ciii cysteines covalently bound to TATA scaffold
B20: BCY17643 (peptide)
peptide: ACENFQLGCRITYKCA
modifications: Ci, Cii and Ciii cysteines covalently bound to TATA scaffold

The binders below were run against T1, COVID-19 nucleocapsid protein (N-protein) (severe acute respiratory syndrome …, UniProt P0DTC9 1-419) (assay: bio-layer interferometry (BLI)).
T1 construct: also called nucleocapsid protein (N-protein) of severe acute respiratory syndrome coronavirus 2 (SARS-CoV-2)

| Binder | Kd [µM] |
| --- | --- |
| B1 | 3.95 |
| B2 | 0.596 |
| B3 | 0.958 |
| B4 | 0.934 |
| B5 | 1.99 |
| B6 | 0.675 |
| B7 | 0.686 |
| B8 | 6.68 |
| B9 | 0.759 |
| B10 | 0.227 |
| B11 | 0.142 |
| B12 | 2.29 |
| B13 | 0.799 |
| B14 | 0.978 |
| B15 | 1.86 |
| B16 | 2.74 |
| B17 | 0.198 |
| B18 | 1 |
| B19 | 1.19 |
| B20 | 4.23 |
